1 molecule from publication PMC6632053 (2019) can be followed below.

Bridge positions count the residues as written; N and C are the ends. Square brackets hold non-standard residues; d marks the D form. Primed or numbered codes have the meaning given here. R8 = C=CCCCCCC[C@@](C)(N)C(=O)O; S5 = C=CCCC[C@](C)(N)C(=O)O; Cba′ = not defined here

For test [1], the target named is site-specific mono-biotinylated Mdm2 (human, biotin (site-specific, mono, by sortase-mediated ligation; site not stated)). The test is described as follows: SPR. A general note: In SPR one partner is held on a chip, and binding of the other changes the refractive index at the surface.
site-specific mono-biotinylated Mdm2 (human, biotin (site-specific, mono, by sortase-mediated ligation; site not stated)), sequence (chain, as listed by the source): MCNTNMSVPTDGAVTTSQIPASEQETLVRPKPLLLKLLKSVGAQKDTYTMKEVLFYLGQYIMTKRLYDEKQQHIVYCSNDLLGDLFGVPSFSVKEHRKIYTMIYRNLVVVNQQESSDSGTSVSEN
A further test has as its target human Mdm2 (1–125) (human). As to the kind of experiment: ITC. A general note: In ITC the heat of successive injections is recorded.

human Mdm2 (1–125) (human), sequence (chain, as listed by the source): as above

B1: MP-292 (peptide)
chain: Ac-LTF[R8]EYWQL[Cba′][S5]SAA-NH2
modifications: staple 4-11; reading uncertain
One may read the Kd as the concentration at which binding is half-saturated. Higher therefore signals a looser complex. Take B1: the Kd was 1.4 nM in test [1] and under 20 nM in the test with human Mdm2 (1–125).
